Experimental data as given in patent US5863889A, “ICAM-1/LFA-1 short-chain peptides and method of using same” (The University of Kansas, priority 1996, dated 1999).

How the values were obtained:
Molt3 cells [1] = assay: Cell metabolic assay (MTT); assay type: cell-based
Protocol: After taking the photographs in Example 3 (and in some instances no photographs were taken), cell metabolic activity was assessed by an MTT assay. A 37.5 μl portion of MTT dye (purchased from SIGMA of St. Louis, Mo.), i.e., 3-[4,5-dimethyl thiazole-2yl]-2, 5- diphenyl tetrazolium bromide; thiazolyl blue) was added to each well, and incubated with the cells at 37° C. for about six hours. After incubation, a 250 μl quantity of a MTT solubilization solution (of a type that may be purchased from either Fischer Scientific of St. Louis, Mo. or BCD Labs of Lawrence, Kans.) was added to each well, and incubated with the cells at room temperature overnight. In the morning, the spectrophotometric absorption of each plate was determined at 570 nm in a microplate ELISA reader manufactured by Cambridge Technologies of Water-town, Mass., in order to assess cell viability as an indicator of potential peptide toxicity.

Molt3 cells [2] = assay: Homotypic adhesion assay (MDHC-induced clumping of T-cells); assay type: cell-based, human; set-up: key to Homotypic Adhesion Amount: Any sample having a score of "+++" or "++++" is considered to have a significant ability to modulate T-cell binding interaction; Any sample having a score of "+++" or "++++" is considered to have a significant ability to modulate T-cell binding interaction; conditions: 10 μM MDHC
Protocol: As before, the T-cells were Molt3 cells prepared in RPMI 1640 growth medium according to Example 2. An approximate 7 ml aliquot of the growth medium was centrifuged (Jouan Model GT422 at 1400 rpm for 6.5 minutes), and the supernatant fluid was decanted. The pellet was resuspended in the supernatant fluid at titer of about 1×10^6 cells/ml, with the excess supernatant fluid being retained for future resuspension of the peptides.
A 228 nmol quantity of the LJCRF-1 (Sequence ID No. 6) peptide described in Table 1 was diluted with the supernatant fluid to a 500 μl final volume, and filtered in microcentrifuge filter tubes (0.22 micron filter; 3500 rpm for 6 minutes). Serial dilution of the filtered peptide with supernatant fluid was conducted to yield five 125 μl peptide solutions to give respective concentrations of about 115 μM, 230 μM, 460 μM, 910 μM, and 1.82 mM. At each concentration, a 125 μl portion of the cell suspension was pipetted into each 125 μl portion of the peptide solutions to yield combined samples having a 250 μl volume. The 250 μl samples were seeded into individual wells in a 48-well tissue culture grade plate (from Costar of Cambridge, Md.) and incubated at 37° C. for 30 minutes. Each sample received 5 μl of 2,5-methyl dihydroxy cinnamate ("MDHC") for a 10 μM final concentration, and was subsequently incubated for about 10 hours at 37° C. MDHC induces intercellular clumping of human T-cells (Tibbetts, Butler, and Benedict, submitted) by activating the LFA/ICAM binding interaction between respective cells.
Pictures were taken of five random fields per sample using an Olympus photomicroscope having a 0.8 mm field at 400×magnification, and a 3.2 mm field of view at 100×magnification. The amount of clumping observed was quantified by determining the mean number of clumps per field ± a standard error.
FIGS. 5, 6, and 7 replicate photographs taken from exemplary peptide assays. FIG. 5 is a photograph of the control sample having no peptides and no MDHC added, from which essentially no clumping of cells is observed. […] Any sample having a score of "+++" or "++++" is considered to have a significant ability to modulate T-cell binding interaction. This is similar to results obtained by incubating similarly treated cells with antibody against either LFA or ICAM.
The homotypic adhesion assay assesses the actual ability of a candidate peptide to modulate the ability of T-cells to adhere with one another.

Molt3 cells [3] = assay: as above; assay type: cell-based, human; conditions: 10 μM MDHC, listed as LJCRF-2
LFA-1 (CD11a) = target: T1, LFA-1 (CD11a) (Homo sapiens, UniProt P20701); assay: Antibody binding assay (FACS): anti-LFA-1 mAb (mouse IgG anti-human CD11a) binding to Molt3 T-cells after peptide incubation; assay type: cell-based; conditions: for Fluorescence, % change from control of the medium fluorescence intensity: mAb CD11a, average ± standard error of runs
T1 construct: host or cells: Molt3 human T-cell leukemia line
Protocol: A 1 ml quantity of the Molt3 inoculum was warmed to 37° C. and transferred by pipette into about 25 ml of a growth culture medium including RPMI 1640 lymphocyte growth medium (Fisher Scientific of St. Louis, Miss.) mixed with 10% by volume fetal calf serum, 100 units/ml penicillin, 100 μg/ml streptomycin and 2 mM glutamine. The inoculated culture was incubated for three to four days at 37° C. under a normal atmosphere having about 5% CO2 added thereto. This culture was capable of being maintained indefinitely by siphoning away the top (non-cell containing) layer and adding 50 ml (or more) of growth culture medium at intervals of three to four days.
An aqueous buffer solution including Dulbecco's phosphate buffered saline and bovine serum albumin ("-PBS/BSA solution") was prepared for use, and included a mixture of 200 mg KH2 PO4, 1.15 g Na2 HPO4, 100 mg CaCl2, 200 mg KCl, 100 mg MgCl2.6H2 O, 8 g NaCl, with distilled water added to a final 1 liter volume at room temperature, thus, forming a "PBS" solution of pH 7.4 to which was added 0.5% by weight bovine serum albumin.
An aliquot of about 7 ml was removed from the incubated culture medium and subjected to washing with the PBS/BSA solution. The washing procedure was initiated by placing the aliquot in a centrifuge (Model GT422 from Jouan, distributed Piruscio & Assoc. of Manchester, Miss.) at 1400 rpm for 6.5 minutes to separate the cells from the growth medium. The supernatant fluid was decanted, a 5 ml portion of PBS/BSA solution was transferred by pipette into the pellet, and the mixture was again centrifuged as before. The resulting supernatant fluid was decanted and the cells from the pellet were resuspended in PBS/BSA solution at a titer of about 1×10^6 cells/ml. A 500 μl portion of the solution containing the resuspended cells was placed in a microcentrifuge (Marathon 13K/M from Fisher Scientific of St. Louis, Miss.) at 3500 rpm for six minutes, to provide a washed pellet.
[…] The cells were incubated with the peptide cocktail at 37° C. for 45 minutes.
After incubation with the peptide cocktail, several antibodies were successively mixed into the incubated solution. A 75 μl portion of anti-IgM solution (a mixture of 10 μl of goat anti-human IgM stock purchased from Jackson Immuno Research of Westgrove, Pa.; and 65 μl of PBS/BSA solution) was added to the peptide cocktail for blocking of nonspecific binding of the secondary antibody. The resulting mixture was incubated for 10 minutes on ice. About 0.1 μg of a primary antibody including mouse IgG anti-human CD11a (purified according to conventional protocols at the University of Kansas Department of Pharmacology and Toxicology from an American Type Culture hybridoma cell line having Catalogue Number HB-202) was next stirred into the mixture, which was then incubated for 30 minutes at room temperature. The incubated mixture was placed in a microcentrifuge at 3500 rpm for six minutes to remove the cells from the mixture, and the cell pellet was washed two times by adding 500 μl aliquots of PBS/BSA solution and microfuging to remove non-bound antibodies from the cells as before. The resulting washed pellet was resuspended in 100 μl of a secondary antibody cocktail including 5 μl of fluorescein isothiocyanate ("FITC") labeled goat anti-mouse IgG (from CALTAG of South San Francisco, Calif.) and 95 μl of PBS/BSA solution. The resulting solution was incubated for 30 minutes at room temperature in the dark.
The incubated solution including the secondary antibody cocktail was microfuged at 3500 rpm for six minutes to remove the cells from the solution, and the cell pellet was washed two times with 500 μl portions of PBS/BSA solution, as before, to remove unbound antibodies. […]

T1 sequence (P20701 26-1170): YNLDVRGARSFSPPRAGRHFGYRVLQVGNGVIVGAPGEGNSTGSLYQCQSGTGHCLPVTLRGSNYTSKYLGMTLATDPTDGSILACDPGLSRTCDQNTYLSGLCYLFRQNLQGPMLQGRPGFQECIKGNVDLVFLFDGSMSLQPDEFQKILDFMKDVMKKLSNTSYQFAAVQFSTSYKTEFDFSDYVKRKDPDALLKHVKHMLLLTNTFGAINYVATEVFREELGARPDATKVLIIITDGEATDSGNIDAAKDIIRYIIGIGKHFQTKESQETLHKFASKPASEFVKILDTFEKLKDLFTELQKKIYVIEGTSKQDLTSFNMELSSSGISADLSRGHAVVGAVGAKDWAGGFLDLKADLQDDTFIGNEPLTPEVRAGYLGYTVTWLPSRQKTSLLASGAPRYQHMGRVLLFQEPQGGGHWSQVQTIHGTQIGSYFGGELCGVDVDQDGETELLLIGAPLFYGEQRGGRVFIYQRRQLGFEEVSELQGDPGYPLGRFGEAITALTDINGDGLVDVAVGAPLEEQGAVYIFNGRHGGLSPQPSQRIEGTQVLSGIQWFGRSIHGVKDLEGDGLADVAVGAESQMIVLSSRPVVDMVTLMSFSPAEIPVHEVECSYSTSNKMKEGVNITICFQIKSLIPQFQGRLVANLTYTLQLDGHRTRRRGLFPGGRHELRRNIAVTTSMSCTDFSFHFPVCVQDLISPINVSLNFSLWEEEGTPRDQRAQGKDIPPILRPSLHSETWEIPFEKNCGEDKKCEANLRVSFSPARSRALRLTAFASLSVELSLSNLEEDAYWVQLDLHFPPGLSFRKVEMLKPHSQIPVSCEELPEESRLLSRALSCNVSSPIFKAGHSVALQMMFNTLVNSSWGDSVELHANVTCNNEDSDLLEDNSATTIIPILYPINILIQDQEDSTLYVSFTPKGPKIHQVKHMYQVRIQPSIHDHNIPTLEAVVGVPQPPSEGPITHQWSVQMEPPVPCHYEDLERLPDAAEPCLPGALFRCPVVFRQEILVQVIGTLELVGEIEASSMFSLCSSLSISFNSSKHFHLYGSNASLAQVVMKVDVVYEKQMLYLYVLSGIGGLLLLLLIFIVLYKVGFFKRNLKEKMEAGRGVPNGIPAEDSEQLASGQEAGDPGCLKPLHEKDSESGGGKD
T1 sequence (P05107 23-769 partner): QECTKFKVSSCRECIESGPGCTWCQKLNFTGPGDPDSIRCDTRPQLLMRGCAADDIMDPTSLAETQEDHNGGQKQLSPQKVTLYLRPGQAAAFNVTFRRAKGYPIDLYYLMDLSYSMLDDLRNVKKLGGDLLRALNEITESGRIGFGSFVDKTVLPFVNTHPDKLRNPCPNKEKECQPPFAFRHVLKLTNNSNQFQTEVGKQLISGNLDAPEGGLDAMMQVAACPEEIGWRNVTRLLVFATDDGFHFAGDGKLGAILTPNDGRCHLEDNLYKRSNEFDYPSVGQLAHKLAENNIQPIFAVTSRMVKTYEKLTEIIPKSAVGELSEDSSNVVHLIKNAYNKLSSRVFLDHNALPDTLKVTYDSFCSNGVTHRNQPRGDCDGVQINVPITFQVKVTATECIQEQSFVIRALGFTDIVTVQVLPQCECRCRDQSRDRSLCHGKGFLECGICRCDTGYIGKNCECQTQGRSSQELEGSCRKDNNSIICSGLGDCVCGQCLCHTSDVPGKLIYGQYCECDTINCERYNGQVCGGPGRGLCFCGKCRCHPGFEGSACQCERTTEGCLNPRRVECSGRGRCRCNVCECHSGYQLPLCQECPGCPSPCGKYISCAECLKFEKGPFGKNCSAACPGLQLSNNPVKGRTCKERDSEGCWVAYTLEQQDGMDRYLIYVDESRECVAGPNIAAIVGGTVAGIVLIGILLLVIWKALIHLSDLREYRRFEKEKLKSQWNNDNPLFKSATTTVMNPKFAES

SC-3-152: ICAM-derived short-chain peptide, Sequence ID No. 11; modulator peptide (DQPKLLGIETPLPKKELLLPGNNRK)
MTT % Viability (Molt3 cells [1]; concentration not given): 38%
MTT % Viability (Molt3 cells [1]; peptide 230 μM): 38%
MTT % Viability (Molt3 cells [1]; peptide 460 μM): 38%
MTT % Viability (Molt3 cells [1]; peptide 910 μM): 38%
MTT % Viability (Molt3 cells [1]; peptide 1820 μM): 43%
Homotypic Adhesion Amount (Molt3 cells [2]; peptide 230 μM): +++
Homotypic Adhesion Effect (Molt3 cells [2]; peptide 230 μM): Enhance
Homotypic Adhesion Effect (Molt3 cells [2]; peptide 460 μM): Enhance
Homotypic Adhesion Amount (Molt3 cells [2]; peptide 910 μM): +++
Homotypic Adhesion Effect (Molt3 cells [2]; peptide 910 μM): Block
Homotypic Adhesion Amount (Molt3 cells [2]; peptide 1820 μM): ++++
Homotypic Adhesion Effect (Molt3 cells [2]; peptide 1820 μM): Block
Homotypic Adhesion Effect (Molt3 cells [3]; peptide 460 μM): binding enhancers
Homotypic Adhesion Effect (Molt3 cells [3]; peptide 910 μM): blockers of intercellular adhesion
Fluorescence, % change from control of the medium fluorescence intensity (LFA-1 (CD11a); peptide 2275 μM): +48 ± 8%
Fluorescence, % change from control of the medium fluorescence intensity (LFA-1 (CD11a); peptide 4550 μM, negative = blocking): -43 ± 7%
effect on antibody binding (LFA-1 (CD11a); peptide 2275 μM): enhance such binding
effect on antibody binding (LFA-1 (CD11a); peptide 4550 μM): block antibody binding
